Experimental data from patent publication US20240102068A1, “C-GLYCOSYLTRANSFERASE VARIANTS AND USE THEREOF” (KOREA ADVANCED INSTITUTE OF SCIENCE AND TECHNOLOGY, priority 2021, published 2024).
Changes are numbered by the printed parent chain. Numbers in names are those of the source. Entries after “also recorded” stand apart in the source; their conditions may differ.

B1: GtCGT: wild-type C-glycosyltransferase GtUF6CGT1 from Gentiana triflora (SEQ ID NO: 1) (protein, listed as Gentiana triflora)
chain: MGSLTNNDNLHIFLVCFIGQGVVNPMLRLGKAFASKGLLVTLSAPEIVGTEIRKANNLNDDQPIKVGSGMIRFEFFDDGWESVNGSKPFDVWVYINHLDQTGRQKLPIMLKKHEETGTPVSCLILNPLVPWVADVADSLQIPCATLWVQSCASFSAYYHYHHGLVPFPTESEPEIDVQLPGMPLLKYDEVPDYLHPRTPYPFFGTNILGQFKNLSKNFCILMDTFYELEHEIIDNMCKLCPIKPIGPLFKIPKDPSSNGITGNFMKVDDCKEWLDSRPTSTVVYVSVGSVVYLKQEQVTEMAYGILNSEVSFLWVLRPPSKRIGTEPHVLPEEFWEKAGDRGKVVQWSPQEQVLAHPATVGFLTHCGWNSTQEAISSGVPVITFPQFGDQVTNAKFLVEEFKVGVRLGRGELENRIITRDEVERALREITSGPKAEEVKENALKWKKKAEETVAKGGYSERNLVGFIEEVARKTGTK
B2: V132A (protein, listed as Gentiana triflora)
chain: B1 chain with V132A
B3: R322D (protein, listed as Gentiana triflora)
chain: B1 chain with R322D
B4: L164G: GtCGT single mutant L164G (protein, listed as Gentiana triflora)
chain: B1 chain with L164G
B5: GtCGT V93Q/Y193F/I323S: GtCGT^V93Q/Y193F with additional I323S (Table 10 No. 12) (protein, listed as Gentiana triflora)
chain: B1 chain with V93Q, Y193F, I323S
B6: GtCGT^V93Q (protein)
chain: B1 chain with V93Q
B7: Y193F (protein, listed as Gentiana triflora)
chain: B1 chain with Y193F
B8: F17G (protein, listed as Gentiana triflora)
chain: B1 chain with F17G
B9: ZmCGT: UGT708A6 from Zea mays which acts as a dual C/O-glycosyltransferase (protein, UniProt A0A096SRM5 1-475, looked up)
UDP-glycosyltransferase 708A6: MAANGGDHTSARPHVVLLPSAGMGHLVPFARLAVALSEGHGCNVSVAAVQPTVSSAESRLLDALFVAAAPAVRRLDFRLAPFDESEFPGADPFFLRFEATRRSAPLLGPLLDAAEASALVTDIVLASVALPVARERGVPCYVLFTSSAAMLSLCAYFPAYLDAHAAAGSVGVGVGNVDIPGVFRIPKSSVPQALHDPDHLFTQQFVANGRCLVACDGILVNTFDAFEPDAVTALRQGSITVSGGFPPVFTVGPMLPVRFQAEETADYMRWLSAQPPRSVVYVSFGSRKAIPRDQLRELAAGLEASGKRFLWVVKSTIVDRDDTADLGGLLGDGFLERVQGRAFVTMGWVEQEEILQHGSVGLFISHCGWNSLTEAAAFGVPVLAWPRFGDQRVNAALVARSGLGAWEEGWTWDGEEGLTTRKEVAKKIKGMMGYDAVAEKAAKVGDAAAAAIAKCGTSYQSLEEFVQRCRDAERK

Key:
[1] = system: FK; experiment: dcII production from FK by C-glycosyltransferase candidates and GtCGT mutants in FK-producing E. coli, flask culture; assay type: cell-based; details: for dcII production: FK-producing E. coli strain; for KA production compared with wild-type GtCGT: mutants transformed into FK strains
Method: Flask culture was carried out under the following conditions. Colonies were seeded into 10 mL of LB medium supplemented with appropriate concentrations of antibiotics, followed by culture overnight at 37° C. The culture fluid thus prepared was passaged into a 250 mL baffled flask containing 50 mL of R/2 medium supplemented with 3 g/L yeast extract and 20 g/L glucose (with 0.45 g/L ascorbic acid if necessary), followed by culture at 30° C. and 200 rpm. The composition of R/2 medium (pH 6.8) was as follows (per liter): 2 g of (NH4)2HPO4, 6.75 g of KH2PO4, 0.85 g of citric acid, 0.7 g of MgSO4·7H2O, and 5 ml of trace metal solution (TMS) [10 g of FeSO4·7H2O, 2.25 g of ZnSO4·7H2O, 1 g of CuSO4·5H2O, 0.5 g of MnSO4·5H2O, 0.23 g of Na2B4O7·10H2O, 2 g of CaCl2·2H2O, and 0.1 g of (NH4)6Mo7O24 per liter of 5 M HCl]. When OD600 of the culture fluid reached 0.6-0.8, 1 mM isopropyl β-D-1-thiogalactopyranoside (IPTG) was added to induce exogenous gene expression, followed by culture for 48 hours.
After culture, production analysis was performed under the following conditions. After flask culture, 50 mL of the culture fluid was centrifuged at 4,000 g for 30 minutes, and then the supernatant was desalted and concentrated. Here, Oasis HLB cartridges (Water) were used. The supernatant was concentrated 1-fold for FK, 30-fold for KA, 45-fold for dell, and 200-fold for carminic acid. The concentrated sample was re-dissolved in an appropriate volume of DMSO and impurities were then removed therefrom using a 0.22 μm PTFE filter. The prepared sample was analyzed by MS (LC/MSD VL; Agilent) coupled with HPLC (1100 series; Agilent). An Eclipse XDB-C18 column was used, 0.1% formic acid was used as buffer A, and methanol was used as buffer B. Analysis was performed in an ESI negative mode. For more accurate analysis of carminic acid, LC-MS/MS was performed using an HPLC Triple Quadrupole Mass Spectrometer (LCMS-8050, Shimadzu) (MRM mode).
Flask culture started by seeding colonies from LB agar plates into test tubes containing 10 mL of LB. As such, an appropriate concentration of antibiotics was added, followed by culture overnight at 37° C. at 220 rpm. 1 mL of the seed culture thus prepared was inoculated into a 250 mL baffled flask containing 50 mL of R/2 medium (supplemented with 3 g/L yeast extract and 20 g/L glucose), followed by culture at 30° C. and 200 rpm. The composition of R/2 medium was as follows (pH 6.8, per 1 L): 2 g of (NH4)2HPO4, 6.75 g of KH2PO4, 0.85 g of citric acid, 0.8 g of MgSO4·7H2O, and 5 ml of trace metal solution (TMS). The composition of TMS was as follows (based on 0.1 M HCl, per 1 L): 10 g of FeSO4·7H2O, 2.25 g of ZnSO4·7H2O, 1 g of CuSO4·5H2O, 0.58 g of MnSO4·5H2O, 0.02 g of Na2B4O7·10H2O, 2 g of CaCl2·2H2O, and 0.1 g of (NH4)6Mo7O24·4H2O. When OD600 of the culture fluid reached 0.6-0.8, 0.5 mM IPTG was added to induce exogenous enzyme expression, followed by culture for 48 hours. In all experiments for producing flavokermesic acid, kermesic acid, dcII, and carminic acid, 0.45 g/L of ascorbic acid was further added.
The production of carminic acid (CA) from FK was performed by two biosynthesis pathways, both of which require monooxygenase and C-glycosyltransferase. FK may be oxidized into KA or may be C-glycosylated into dcII. […] In order for the enzyme to have activity, however, it must be glycosylated, and since it also has a transmembrane helix and a signal peptide, successful expression in cells such as E. coli is considered difficult.
For the enzymes selected above, pCDF-DcCGT, pCDF-MiCGT, pCDF-SfCGT, pCDF-EnCGT, pCDF-OsCGT, pCDF-FeCGT, pCDF-GmCGT, pCDF-AvCGT, pCDF-AvCGT, pCDF-ZmCGT, and pCDF-GtCGT were constructed, and all genes except for the iroB gene amplified from genomic DNA of E. coli Nissle using the iroB_gib_F primer and the iroB_gib_R primer were artificially synthesized and inserted into the NdeI site of the pCDFDuet-1 plasmid using Gibson assembly. […]

[2] = system: aloesone; experiment: Aloesin production from aloesone by GtCGT and variants in E. coli BL21(DE3), flask culture; assay type: cell-based
Method: Also, in LC-MS/MS for aloesin analysis, MS (Agilent 6550 iFunnel Q-TOF LC/MS System) coupled with ultra HPLC (UHPLC; 1290 Infinity II LC System; Agilent) was used. Here, an Eclipse-plus C18 column was used, and 0.1% formic acid was used as buffer A, and acetonitrile to which 0.1% formic acid was added was used as buffer B.
Thereafter, in order to test the production of aloesin, the pCDF-GtCGT or pCDF-GtCGT^V93Q/Y193F plasmid was transformed into the BL21(DE3) strain containing pWAS-anti-pabA, pRSF-RpALS, and pBBR1-zwf plasmids, followed by flask culture.
Similarly to the test for increased production of aloesone, RpALS was additionally introduced to increase aloesin production. To this end, pCDF-RpALS-GtCGT^V93Q/Y193F was constructed instead of introducing pCDF-GtCGT^V93Q/Y193F. Specifically, RpALS was amplified from pCDF-RpALS using pCDFDuet F and pCDFDuet R primers, and inserted into the NcoI and BamHI sites of the pCA plasmid through Gibson assembly. Thereafter, four plasmids, namely pRSF-RpALS, pCDF-RpALS-GtCGT^V93Q/Y193F, pWAS-anti-pabA, and pBBR1-zwf, were transformed into E. coli BL21(DE3), which was named an ALS strain.
(§1) Mutagenesis for a specific sequence was performed in the same manner as in Example 2. Here, plasmids containing gene mutants were constructed using pCDF-RpALS-GtCGT^V93Q/Y193F as a template and using primer pairs shown in Table 11 below. The plasmids thus constructed were transformed into the BL21 (DE3) strain along with three plasmids, namely pWAS-anti-pabA, pRSF-RpALS, and pBBR1-zwf, followed by flask culture under the same conditions as in Example 3 using the strains thus constructed. The concentration of aloesin produced was measured in an MRM mode of the HPLC Triple Quadrupole Mass Spectrometer (LCMS-8050, Shimadzu) of the KAIST Biocore Center.
as §1, with “13” for “11”

Row | Molecule | dcII production from FK (in words) ([1]; FK-producing E. coli) | KA production compared with wild-type GtCGT ([1]; flask culture) | other results
1 | B1 | able to successfully convert FK into dell | – | dcII production ([1]; flask culture): 0.13 mg CA eq/L; dcII production ([1]; galU, pgm and ndk overexpressed): 0.30 mg CA eq/L
2 | B2 | – | higher KA production than wild-type GtCGT | –
3 | B3 | – | higher KA production than wild-type GtCGT | –
4 | B4 | – | higher KA production than wild-type GtCGT | –
5 | B5 | – | – | aloesin production increase ([2]; compared to conventional concentration of 0.3 μg/L (ALS strain with GtCGT^V93Q/Y193F)): ≥ 25.8 fold; aloesin production ([2]; variant on pCDF-RpALS-GtCGT plasmid (additional RpALS), with pWAS-anti-pabA, pRSF-RpALS, pBBR1-zwf): 7.75 µg/L
6 | B6 | highest dcII production | higher KA production than wild-type GtCGT | dcII production increase compared to wild-type GtCGT ([1]; FK strain, flask culture): about 2.9 fold
7 | B7 | second highest concentration of dell | higher KA production than wild-type GtCGT | –
8 | B8 | – | higher KA production than wild-type GtCGT | –
9 | B9 | able to successfully convert FK into dell; also recorded: very small amount | – | main product from FK ([1]; FK-producing E. coli): O-glycosylated FK
